Test results published in publication PMC5811048, “Application of the SSB biosensor to study in vitro transcription”.

How the values were obtained:
MDCC-SSB [1] = target: T1, MDCC-SSB (UniProt P0AGE0 1-178, G27C); test: MDCC fluorescence spectra; excess ssRNA70; 3 mM MgCl2; 50 mM Tris-HCl pH 7.5, 3 mM MgCl2, 100 mM (or 200 mM) NaCl; MDCC titrations 25 C; EMSA room temperature, 20 min; details: protein: recombinant; tags: pET151 vector, His tag (HisTrap purified); MDCC label (at C26, implied); chain copies: 4; single strand
T1 sequence (P0AGE0 whole entry G27C): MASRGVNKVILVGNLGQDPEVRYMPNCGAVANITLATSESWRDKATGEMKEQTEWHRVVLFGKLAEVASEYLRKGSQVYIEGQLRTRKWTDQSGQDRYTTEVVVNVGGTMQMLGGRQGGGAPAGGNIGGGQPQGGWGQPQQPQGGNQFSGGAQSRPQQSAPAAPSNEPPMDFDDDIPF

MDCC-SSB [2] = target: T1, MDCC-SSB; test: MDCC fluorescence spectra; excess ssDNA70; 3 mM MgCl2; 50 mM Tris-HCl pH 7.5, 3 mM MgCl2, 100 mM (or 200 mM) NaCl; MDCC titrations 25 C; EMSA room temperature, 20 min; details: protein: recombinant; tags: pET151 vector, His tag (HisTrap purified); MDCC label (at C26, implied); chain copies: 4; single strand

B1: ssRNA70 (ssRNA)
RNA: UUAGUUGUUCGUAGUGCUCGUCUGGCUCUGGAUUACCCGCUUAGUUGUUCGUAGUGCUCGUCUGGCUCUG
In the case of B1, the binding signal (MDCC-SSB [1]) is reported as 2.1 fold fluorescence increase.

B2: ssDNA70 (dT70) (ssDNA)
DNA: TTTTTTTTTTTTTTTTTTTTTTTTTTTTTTTTTTTTTTTTTTTTTTTTTTTTTTTTTTTTTTTTTTTTTT
In the case of B2, the binding signal (MDCC-SSB [2]) is reported as 1.9 fold fluorescence increase.
